Results on six sequences are retold here after US20040018530.

The test system of series [1] is IgE (immunoglobulin E, monoclonal, kappa light chain) (Homo sapiens). As to conditions: CE-UV binding assay up to 2.5 uM IgE; round 1 pool 33% bound; PBS, 1 mM MgCl2, pH 8.0, 25 C.
Series [2] has the same test system. As to conditions: CE-UV binding assay; rounds 1, 2, 3 gave 62, 96, ~100% bound; PBS, 1 mM MgCl2, pH 8.0, 25 C.
The test system is the same in series [3]. As to conditions: affinity capillary electrophoresis with LIF; PBS, 1 mM MgCl2, 35 mM NaCl, pH 8.0, 25 C.
Series [4] has the same test system. The settings on record: affinity capillary electrophoresis with LIF; PBS, 1 mM MgCl2, pH 8.0, 25 C; literature value 10 nM; cited from earlier work.
The test system is the same in series [5]. As to conditions: CE-UV binding assay up to 1.1 uM IgE; round 1 pool 67% bound; PBS, 1 mM MgCl2, pH 8.0, 25 C.
For series [6] the test system is unchanged. As to conditions: affinity capillary electrophoresis with LIF; PBS, 1 mM MgCl2, 40 mM NaCl, pH 8.0, 25 C.

Read-outs that look alike come from different tables or passages of the source.

Regarding “AGCAGCACAGAGGTCAGATGNNNNNNNNNNNNNNNNNNNNNNNNNNNNNNNNNNNNNNNNCCTATGCGTGCTACCGTGAA [CE-SELEX experiment 1 round 2 enriched pool]”, the binding in series [1] amounted to 100 % bound.

“AGCAGCACAGAGGTCAGATGNNNNNNNNNNNNNNNNNNNNNNNNNNNNNNNNNNNNNNNNCCTATGCGTGCTACCGTGAA [CE-SELEX experiment 3 round 4 enriched pool]”: the binding in series [2] amounted to 100 % bound.

In the case of “AGCAGCACAGAGGTCAGATGGTAATTTTCGCTGCGATTAGGCTTGTGACAAAATTACTATCCTATGCGTGCTACCGTGAA [Clone 1.8]”, the Kd in series [3] was 293 nM.

“CTACCTACGATCTGACTAGCGGGGCACGTTTATCCGTCCCTCCTAGTGGCGTGCCCCGCTTACTCTCATGTAGTTCC [conventional SELEX IgE aptamer]”: in series [4], the Kd is 4 nM.

Consider “AGCAGCACAGAGGTCAGATGNNNNNNNNNNNNNNNNNNNNNNNNNNNNNNNNNNNNNNNNCCTATGCGTGCTACCGTGAA [CE-SELEX experiment 2 round 2 enriched pool]”, for which the binding in series [5] was 100 % bound.

In series [6], “AGCAGCACAGAGGTCAGATGGATGGGGGGGTCTAACGTGCGATCTGCCGACTTTATCCTGCCTATGCGTGCTACCGTGAA [Clone 2.27]” showed a Kd of 52 nM.
